Data as given in patent US20180326005A1 (HEAT BIOLOGICS, published 2018).
Like-named read-outs stand apart in the source and are kept apart here.

What was measured:
human FcγR1A [1] = target: T1, human FcγR1A (human, UniProt P12314 16-288); assay: SPR summary table, row group FcγR1A
T1 construct: also called recombinant human FcγR1A

neonatal receptor FcRn [2] = target: T2, neonatal receptor FcRn (human, UniProt P55899 24-297; P61769 21-119); assay: SPR summary table, row group FcRn
T2 construct: also called recombinant human FcRn

[3] = target: polyhistidine-tagged recombinant human CD47 (human) (UniProt Q08722); assay: SPR summary table, row group CD47
[4] = target: human PD-L1 on cells (CHO-K1/hPD-L1, HCC827, PC3, HeLa-PD-L1) (human, UniProt Q9NZQ7 19-290); assay: cell-based or functional assay
FcγR2B = target: T3, FcγR2B (human, UniProt P31994 46-217, limits assumed); assay: SPR, chip-bound Fc receptor
T3 sequence (looked up): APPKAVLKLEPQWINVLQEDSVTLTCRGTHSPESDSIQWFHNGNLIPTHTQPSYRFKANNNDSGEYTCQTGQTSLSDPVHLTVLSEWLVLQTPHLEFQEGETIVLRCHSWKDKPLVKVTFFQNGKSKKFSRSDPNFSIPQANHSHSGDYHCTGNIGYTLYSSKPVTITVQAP

neonatal receptor FcRn [5] = target: T2, neonatal receptor FcRn; assay: SPR, chip-bound Fc receptor
[6] = target: T4, polyhistidine-tagged recombinant human OX40 (human, UniProt P43489 29-216); assay: SPR summary table, row group OX40
T4 construct: also called recombinant OX40-his; hOX40-his; not shown: polyhistidine tag
T4 sequence (looked up): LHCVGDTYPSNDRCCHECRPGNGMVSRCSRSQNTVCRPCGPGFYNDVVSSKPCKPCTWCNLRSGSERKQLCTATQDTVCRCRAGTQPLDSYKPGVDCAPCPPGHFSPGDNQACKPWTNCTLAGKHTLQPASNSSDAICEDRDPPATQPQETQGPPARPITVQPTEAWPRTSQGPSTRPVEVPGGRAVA
Source text: (§1) Specifically, polyhistidine-tagged versions of recombinant human PD-L1, PD-L2 and human OX40 was bound to ProteOn HTG tris-NTA chips (BIORAD).

[7] = target: T5, polyhistidine-tagged recombinant human PD-L1 (human, UniProt Q9NZQ7 19-239); assay: SPR summary table, row group PD-L1
T5 construct: also called hPD-L1; not shown: polyhistidine tag
Source text: as §1

[8] = target: T6, polyhistidine-tagged recombinant human PD-L2 (human, UniProt Q9BQ51 20-219); assay: SPR summary table, row group PD-L2
T6 construct: not shown: polyhistidine tag
T6 sequence (looked up): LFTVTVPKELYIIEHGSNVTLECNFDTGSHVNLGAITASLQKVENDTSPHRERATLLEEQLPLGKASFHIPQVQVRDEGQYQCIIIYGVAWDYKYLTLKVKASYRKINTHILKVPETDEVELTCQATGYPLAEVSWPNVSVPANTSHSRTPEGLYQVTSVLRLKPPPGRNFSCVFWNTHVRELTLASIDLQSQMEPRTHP
Source text: as §1

[9] = target: T5, polyhistidine-tagged recombinant human …; assay: SPR, his-tagged ligand on ProteOn HTG tris-NTA chip
Source text: as §1
(§2) Specifically, polyhistidine-tagged versions of recombinant human CD47 and human OX40 was bound to ProteOn HTG tris-NTA chips (BIORAD).

[10] = target: T6, polyhistidine-tagged recombinant human …; assay: as above
Source text: as §1, §2

[11] = target: T4, polyhistidine-tagged recombinant human …; assay: as above
Source text: as §1, §2

human FcγR1A [12] = target: T1, human FcγR1A; assay: SPR, chip-bound human FcγR1A, analyte in flow
neonatal receptor FcRn [13] = target: T2, neonatal receptor FcRn; assay: SPR summary table, row group FcRn; the text gives 73 nM for this pair
[14] = target: T4, polyhistidine-tagged recombinant human …; assay: SPR summary table, row group OX40; remark: listed apart in the source
Source text: as §1

[15] = target: T4, polyhistidine-tagged recombinant human …; assay: SPR summary table, row group OX40; remark: listed apart in the source
Source text: as §2

mouse PD-1-Fc = target: T7, mouse PD-1-Fc (mouse, UniProt Q02242 25-169; P01868 98-324 = IgG part, limits assumed); assay: ELISA: plate-bound mOX40-hFc, two-fold dilutions of CHO-K1 culture medium, detection with rabbit anti-mPD-1 and anti-rabbit IgG-HRP
T7 construct: extracellular domain;domain: Fc; Control construct, tested as CHO-K1 culture medium; also called mPD-1-Fc; recombinant mouse PD1-Fc
Source text: (§3) A rabbit polyclonal antibody to mPD-1 was used to detect the mPD-1 domain in the chimeric protein and subsequently detected using a horseradish peroxidase (HRP)-conjugated polyclonal antibody to rabbit IgG (H+L).
as §3, with “(H+L). […] A horseradish peroxidase (HRP)-conjugated polyclonal antibody to mouse IgG (H+L) was used for the detection of the bound proteins.” for “(H+L).”

[16] = target: T8, human OX40 on cells (Jurkat/hOX40, activated human T cells) (human, UniProt P43489 29-277); assay: flow cytometry, Jurkat-hOX40 against parental Jurkat cells, Fc-Fusions: PE-A
T8 construct: whole, on cells; also called Jurkat/OX40; cell surface expressed OX40
T8 sequence (looked up): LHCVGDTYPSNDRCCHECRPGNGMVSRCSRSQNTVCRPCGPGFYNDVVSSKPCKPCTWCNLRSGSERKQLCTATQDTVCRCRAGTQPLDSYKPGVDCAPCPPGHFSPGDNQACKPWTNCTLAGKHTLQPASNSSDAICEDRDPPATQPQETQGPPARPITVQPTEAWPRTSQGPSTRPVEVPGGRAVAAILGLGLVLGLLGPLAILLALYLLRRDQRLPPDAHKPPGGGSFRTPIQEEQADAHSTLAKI

T5 sequence (Q9NZQ7 19-239 limits assumed): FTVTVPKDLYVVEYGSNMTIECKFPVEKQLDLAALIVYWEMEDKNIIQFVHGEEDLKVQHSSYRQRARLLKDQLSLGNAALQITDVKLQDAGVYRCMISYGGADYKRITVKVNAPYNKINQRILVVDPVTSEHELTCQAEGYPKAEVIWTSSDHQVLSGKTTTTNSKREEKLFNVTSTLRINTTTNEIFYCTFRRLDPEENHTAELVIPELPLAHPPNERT
Sequence of polyhistidine-tagged recombinant human CD47 (human) (Q08722 19-139 limits assumed): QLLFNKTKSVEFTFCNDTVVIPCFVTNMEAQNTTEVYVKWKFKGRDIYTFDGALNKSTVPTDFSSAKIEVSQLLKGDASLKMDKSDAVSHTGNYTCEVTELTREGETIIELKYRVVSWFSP
T1 sequence (P12314 16-288 limits assumed): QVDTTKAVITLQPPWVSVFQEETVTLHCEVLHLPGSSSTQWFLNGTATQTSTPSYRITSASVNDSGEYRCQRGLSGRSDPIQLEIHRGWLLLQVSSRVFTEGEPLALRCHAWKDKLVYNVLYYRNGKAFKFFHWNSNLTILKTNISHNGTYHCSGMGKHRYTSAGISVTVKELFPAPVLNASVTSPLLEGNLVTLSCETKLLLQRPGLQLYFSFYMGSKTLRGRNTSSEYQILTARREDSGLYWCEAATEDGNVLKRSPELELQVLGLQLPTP
Sequence of human PD-L1 on cells (CHO-K1/hPD-L1, HCC827, PC3, HeLa-PD-L1) (Q9NZQ7 19-290): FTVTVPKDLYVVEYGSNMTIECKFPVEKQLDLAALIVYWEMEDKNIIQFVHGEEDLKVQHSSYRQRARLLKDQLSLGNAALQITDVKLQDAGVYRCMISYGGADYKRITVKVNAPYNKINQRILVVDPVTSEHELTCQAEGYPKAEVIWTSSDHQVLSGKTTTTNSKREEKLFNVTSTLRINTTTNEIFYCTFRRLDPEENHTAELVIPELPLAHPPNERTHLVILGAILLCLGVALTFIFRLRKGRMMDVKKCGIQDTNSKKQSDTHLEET
T7 sequence (Q02242 other isoform, or with tags, fused parts or gaps limits assumed): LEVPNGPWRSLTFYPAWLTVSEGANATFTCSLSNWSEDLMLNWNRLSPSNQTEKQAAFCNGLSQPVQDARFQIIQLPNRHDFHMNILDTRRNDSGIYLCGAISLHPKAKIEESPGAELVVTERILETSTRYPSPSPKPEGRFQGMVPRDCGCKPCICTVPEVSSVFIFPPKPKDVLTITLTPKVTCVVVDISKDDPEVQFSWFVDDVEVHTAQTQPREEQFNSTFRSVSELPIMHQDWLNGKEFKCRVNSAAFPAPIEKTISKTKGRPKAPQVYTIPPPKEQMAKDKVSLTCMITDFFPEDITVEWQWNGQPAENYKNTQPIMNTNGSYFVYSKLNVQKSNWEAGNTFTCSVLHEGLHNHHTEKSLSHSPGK

human immunoglobulin IgG1 (antibody)
Kd (human FcγR1A [1]): 17.7 nM
koff (human FcγR1A [1]): 0.00044 s⁻¹
kon (human FcγR1A [1]): 24900 M⁻¹ s⁻¹
Kd (neonatal receptor FcRn [2]): 4.87 nM
koff (neonatal receptor FcRn [2]): 0.0046 s⁻¹
kon (neonatal receptor FcRn [2]): 945000 M⁻¹ s⁻¹

CD172a-Fc (Fc fusion)
Kd [3]: 3.16 nM
koff [3]: 0.00239 s⁻¹
kon [3]: 756000 M⁻¹ s⁻¹

B1: SL-279252 (human PD-1-Fc-OX40L) (Fc fusion)
chain: LDSPDRPWNPPTFSPALLVVTEGDNATFTCSFSNTSESFVLNWYRMSPSNQTDKLAAFPEDRSQPGQDCRFRVTQLPNGRDFHMSVVRARRNDSGTYLCGAISLAPKAQIKESLRAELRVTERRAEVPTAHPSPSPRPAGQFQSKYGPPCPSCPAPEFLGGPSVFLFPPKPKDTLMISRTPEVTCVVVDVSQEDPEVQFNWYVDGVEVHNAKTKPREEQFNSTYRVVSVLTVLHQDWLSGKEYKCKVSSKGLPSSIEKTISNATGQPREPQVYTLPPSQEEMTKNQVSLTCLVKGFYPSDIAVEWESNGQPENNYKTTPPVLDSDGSFFLYSRLTVDKSSWQEGNVFSCSVMHEALHNHYTQKSLSLSLGKIEGRMDQVSHRYPRIQSIKVQFTEYKKEKGFILTSQKEDEIMKVQNNSVIINCDGFYLISLKGYFSQEVNISLHYQKDEEPLFQLKKVRSVNSLMVASLTYKDKVYLNVTTDNTSLDDFHVNGGELILIHQNPGEFCVL
notes: Glycosylated; about 50% of the non-reduced protein ran as a dimer; also called hPD-1-Fc-OX40L
increase in IL-2 from baseline (no SL-279252) to 5 ug/mL of SL-279252, T cell co-culture with HCC827 (PD-L1high) [4]: 1.92 fold
increase in IL-2 from baseline (no SL-279252) to 5 ug/mL of SL-279252, T cell co-culture with PC3 (PD-L1low) [4]: 1.27 fold
binding result (FcγR2B): no binding
Kd (neonatal receptor FcRn [5]): 73 nM
koff (neonatal receptor FcRn [2]): 0.00234 s⁻¹
kon (neonatal receptor FcRn [2]): 255000 M⁻¹ s⁻¹
koff [6]: 1.9e-05 s⁻¹
kon [6]: 77300 M⁻¹ s⁻¹
koff [7]: 0.000176 s⁻¹
kon [7]: 84500 M⁻¹ s⁻¹
koff [8]: 6.7e-05 s⁻¹
kon [8]: 54000 M⁻¹ s⁻¹
Kd [9]: 2.08 nM
off-rate, fold slower than recombinant PD-1-Fc [9]: ~20 fold
Kd [10]: 1.24 nM
Kd [11]: 0.246 nM
binding result (human FcγR1A [12]): no binding (tested: 500 nM)
Kd (neonatal receptor FcRn [13]): 9.17 nM

B2: recombinant human OX40L-Fc (Fc fusion, UniProt P23510 51-183, looked up)
chain: QVSHRYPRIQSIKVQFTEYKKEKGFILTSQKEDEIMKVQNNSVIINCDGFYLISLKGYFSQEVNISLHYQKDEEPLFQLKKVRSVNSLMVASLTYKDKVYLNVTTDNTSLDDFHVNGGELILIHQNPGEFCVL
notes: Positive control in SPR; not shown: Fc
Kd [6]: 9.28 nM
koff [6]: 0.00069 s⁻¹
Kd [14]: 9.28 nM
koff [14]: 0.00069 s⁻¹
Kd [15]: 9.28 nM
koff [15]: 0.00069 s⁻¹

B3: recombinant mOX40 fused to human Fc (Fc fusion, mouse, UniProt P47741 20-211, looked up)
chain: VTARRLNCVKHTYPSGHKCCRECQPGHGMVSRCDHTRDTLCHPCETGFYNEAVNYDTCKQCTQCNHRSGSELKQNCTPTQDTVCRCRPGTQPRQDSGYKLGVDCVPCPPGHFSPGNNQACKPWTNCTLSGKQTRHPASDSLDAVCEDRSLLATLLWETQRPTFRPTTVQSTTVWPRTSELPSPPTLVTPEGP
notes: also called mOX40-hFc; not shown: human Fc
binding result (mouse PD-1-Fc): no binding (tested: 1:1 (undiluted culture medium))

B4: human PD1-Fc-TL1A (Fc fusion)
chain: LDSPDRPWNPPTFSPALLVVTEGDNATFTCSFSNTSESFVLNWYRMSPSNQTDKLAAFPEDRSQPGQDCRFRVTQLPNGRDFHMSVVRARRNDSGTYLCGAISLAPKAQIKESLRAELRVTERRAEVPTAHPSPSPRPAGQFQSKYGPPCPSCPAPEFLGGPSVFLFPPKPKDTLMISRTPEVTCVVVDVSQEDPEVQFNWYVDGVEVHNAKTKPREEQFNSTYRVVSVLTVLHQDWLSGKEYKCKVSSKGLPSSIEKTISNATGQPREPQVYTLPPSQEEMTKNQVSLTCLVKGFYPSDIAVEWESNGQPENNYKTTPPVLDSDGSFFLYSRLTVDKSSWQEGNVFSCSVMHEALHNHYTQKSLSLSLGKIEGRMDRAQGEACVQFQALKGQEFAPSHQQVYAPLRADGDKPRAHLTVVRQTPTQHFKNQFPALHWEHELGLAFTKNRMNYTNKFLLIPESGDYFIYSQVTFRGMTSECSEIRQAGRPNKPDSITVVITKVTDSYPEPTQLLMGTKSVCEVGSNWFQPIYLGAMFSLQEGDKLMVNVSDISLVDYTKEDKTFFGAFLL
notes: The entry includes the native leader; no cleavage site is stated; also called hPD1-Fc-TL1A
binding result [16]: no binding
